Experimental data published in patent publication US20230270877A1 (Seagen, published 2023).

Target: T1, human FcγRIIIa (human, UniProt P08637 17-254)
T1 construct: whole, on cells
Test: flow cytometry on CHO cells transfected with human FcγRIIIa, PE anti-human IgG Fc secondary, GEO mean fluorescence

T1 sequence (P08637 17-254): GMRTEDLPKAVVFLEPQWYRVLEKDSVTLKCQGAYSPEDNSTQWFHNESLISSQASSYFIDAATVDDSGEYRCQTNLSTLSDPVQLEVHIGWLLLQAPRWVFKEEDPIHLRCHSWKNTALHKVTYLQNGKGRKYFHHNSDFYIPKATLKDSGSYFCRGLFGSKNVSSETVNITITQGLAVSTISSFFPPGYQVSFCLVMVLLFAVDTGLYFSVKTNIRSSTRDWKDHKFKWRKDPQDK

B1: SEA-CD40 (nonfucosylated hS2C6) (antibody, human IgG1, kappa)
heavy: not shown
light: DIQMTQSPSSLSASVGDRVTITCRSSQSLVHSNGNTFLHWYQQKPGKAPKLLIYTVSNRFSGVPSRFSGSGSGTDFTLTISSLQPEDFATYFCSQTTHVPWTFGQGTKVEIKRTVAAPSVFIFPPSDEQLKSGTASVVCLLNNFYPREAKVQWKVDNALQSGNSQESVTEQDSKDSTYSLSSTLTLSKADYEKHKVYACEVTHQGLSSPVTKSFNRGEC
notes: also called nonfucosylated humanized S2C6
EC50 (read off the curve): ~1 µg/mL
